Two molecules from PMC3772987 can be followed below.

The target in one data set is His6-BosR (Borrelia burgdorferi B31, UniProt O51592 2-176). Nature of the data set: fluorescence anisotropy.
The target in another data set is BosR tag-free (Borrelia burgdorferi B31, UniProt O51592 1-176, M1R). The experiment in a line: fluorescence anisotropy.

B1: FPospD (dsDNA)
DNA 1: ATAATTGATATTAAAATATAATTGAT
DNA 2: ATCAATTATATTTTAATATCAATTAT
Broadly, the Kd is the equilibrium constant for the complex coming apart. Higher therefore signals a looser complex. As to B1, the Kd with His6-BosR came out at 262 nM; with BosR tag-free, 332 nM.

B2: FPospAB (dsDNA)
DNA 1: TAATCTTATAATATAATTATACTT
DNA 2: AAGTATAATTATATTATAAGATTA
For B2, the results for the Kd in the data set with His6-BosR and in the data set with BosR tag-free were 222 nM and 307 nM, respectively.
